Measured values reported in patent publication US20260201008A1, “SECRETIN-DERIVED GLP1R SELECTIVE AGONISTS” (GUBRA A/S, priority 2023, published 2026).
Numbered stars: 1 amine (or outer) side, 2 acyl side, 3 side chain; on linkers, the order of the positions; unused ones are H or OH. Square brackets hold non-standard residues; d marks the D form. Side chains are listed from the residue outwards. Ends that are not written are not given here. * marks the point of attachment. C20 diacid = O=C(O)CCCCCCCCCCCCCCCCCCC(=O)*; γGlu = O=C(O)[C@H](CCC(=O)[*:2])N[*:1]; AEEA = NCCOCCOCC(=O)O; Aib = CC(C)(N)C(=O)O

B1: SEQ ID NO: 150 (peptide)
peptide: H[Aib]EGTFTSDVSYLKEEA[Aib]EQRFLEHLV-NH2
modifications: not fully specified (residue 14)
B2: SEQ ID NO: 160 (peptide)
peptide: H[Aib]WGTFTSDVSYLKEEA[Aib]LQRFLEHLV-NH2
modifications: not fully specified (residue 14)
B3: SEQ ID NO: 165 (peptide)
peptide: H[Aib]EGTFTSDVSTLK([AEEA-AEEA-γGlu-C20 diacid])EEA[Aib]LQRFLEHLV-NH2
B4: SEQ ID NO: 147 (peptide)
peptide: H[Aib]EGTFTSDVSYLKEEA[Aib]LQRFLEKLV-NH2
modifications: not fully specified (residue 14)
B5: SEQ ID NO: 154 (peptide)
peptide: H[Aib]EGTFTSDVSYLKEEA[Aib]GQRFLEHLV-NH2
modifications: not fully specified (residue 14)
B6: SEQ ID NO: 144 (peptide)
peptide: H[Aib]EGTFTSDVSYLKEEA[Aib]LQRFLEYLV-NH2
modifications: not fully specified (residue 14); also: K14 lipidated with C20DA[γE][OEG][OEG]- or C18DA[γE][OEG][OEG]-
B7: SEQ ID NO: 153 (peptide)
peptide: H[Aib]EGTFTSDVSDLKEEA[Aib]LQRFLEHLV-NH2
modifications: not fully specified (residue 14)
B8: SEQ ID NO: 14 (peptide)
peptide: H[Aib]EGTFTSDVSELKEEAAQQRFLEHLV-NH2
modifications: not fully specified (residue 14); also: K14 lipidated with C20DA[γE][OEG][OEG]- or C18DA[γE][OEG][OEG]-
B9: SEQ ID NO: 156 (peptide)
peptide: H[Aib]QGTFTSDVSYLKEEA[Aib]LQRFLEHLV-NH2
modifications: not fully specified (residue 14)
B10: SEQ ID NO: 162 (peptide)
peptide: H[Aib]EGTFTSDVSYLKEEA[Aib]TQRFLEHLV-NH2
modifications: not fully specified (residue 14)
B11: SEQ ID NO: 159 (peptide)
peptide: H[Aib]YGTFTSDVSYLKEEA[Aib]LQRFLEHLV-NH2
modifications: not fully specified (residue 14)
B12: SEQ ID NO: 167 (peptide)
peptide: H[Aib]EGTFTSDVSGLK([AEEA-AEEA-γGlu-C20 diacid])EEA[Aib]LQRFLEHLV-NH2
B13: SEQ ID NO: 143 (peptide)
peptide: H[Aib]EGTFTSDVSYLYEEA[Aib]LQRFLEKLV-NH2
modifications: not fully specified (residue 25)
B14: SEQ ID NO: 140 (peptide)
peptide: H[Aib]EGTFTSDVSPLKEEA[Aib]LQRFLEHLV-NH2
modifications: not fully specified (residue 14); also: K14 lipidated with C20DA[γE][OEG][OEG]- or C18DA[γE][OEG][OEG]-
B15: SEQ ID NO: 139 (peptide)
peptide: H[Aib]EGTFTSDVSYLKEEA[Aib]IQRFLEHLV-NH2
modifications: not fully specified (residue 14)
B16: SEQ ID NO: 142 (peptide)
peptide: HGEGTFTSDVSYLKEEA[Aib]LQRFLEHLV-NH2
modifications: not fully specified (residue 14); also: K14 lipidated with C20DA[γE][OEG][OEG]- or C18DA[γE][OEG][OEG]-
B17: SEQ ID NO: 155 (peptide)
peptide: H[Aib]VGTFTSDVSYLKEEA[Aib]LQRFLEHLV-NH2
modifications: not fully specified (residue 14)
B18: SEQ ID NO: 148 (peptide)
peptide: H[Aib]EGTFTSDVSALKEEA[Aib]LQRFLEHLV-NH2
modifications: not fully specified (residue 14)
B19: SEQ ID NO: 145 (peptide)
peptide: H[Aib]EGTFTSDVSHLKEEA[Aib]LQRFLEHLV-NH2
modifications: not fully specified (residue 14); also: K14 lipidated with C20DA[γE][OEG][OEG]- or C18DA[γE][OEG][OEG]-
B20: SEQ ID NO: 138 (peptide)
peptide: H[Aib]EGTFTSDVSVLKEEA[Aib]LQRFLEHLV-NH2
modifications: not fully specified (residue 14)
B21: SEQ ID NO: 136 (peptide)
peptide: H[Aib]EGTFTSDVSNLKEEA[Aib]LQRFLEHLV-NH2
modifications: not fully specified (residue 14)
B22: SEQ ID NO: 2 (peptide)
peptide: H[Aib]EGTFTSDVSRLK([AEEA-AEEA-γGlu-C20 diacid])EFAAAQRFLEHLV-NH2
B23: SEQ ID NO: 15 (peptide)
peptide: H[Aib]EGTFTSDVSVLKE[Aib]AAAQRFLEHLV-NH2
modifications: not fully specified (residue 14)
B24: SEQ ID NO: 141 (peptide)
peptide: H[Aib]EGTFTSDVSYLKEEA[Aib]LQRYLEHLV-NH2
modifications: not fully specified (residue 14); also: K14 lipidated with C20DA[γE][OEG][OEG]- or C18DA[γE][OEG][OEG]-
B25: SEQ ID NO: 137 (peptide)
peptide: H[Aib]EGTFTSDVSYLKEEAALQRFLEHLV-NH2
modifications: not fully specified (residue 14)
B26: SEQ ID NO: 169 (peptide)
peptide: H[Aib]EGTFTSDVSYLK([AEEA-AEEA-γGlu-C20 diacid])EEA[Aib]LQRFLEWLV-NH2
B27: SEQ ID NO: 164 (peptide)
peptide: H[Aib]EGTFTSDVSYLHEEA[Aib]LQRFLEKLV-NH2
modifications: not fully specified (residue 25)
B28: SEQ ID NO: 161 (peptide)
peptide: H[Aib]EGTFTSDVSYLKEEA[Aib]VQRFLEHLV-NH2
modifications: not fully specified (residue 14)
B29: SEQ ID NO: 149 (peptide)
peptide: H[Aib]EGTFTSDVSLLKEEA[Aib]LQRFLEHLV-NH2
modifications: not fully specified (residue 14)
B30: SEQ ID NO: 163 (peptide)
peptide: H[Aib]EGTFTSDVS[Aib]LKEEA[Aib]LQRFLEHLV-NH2
modifications: not fully specified (residue 14)
B31: SEQ ID NO: 157 (peptide)
peptide: H[Aib]EGTFTSDVSYLKEEA[Aib]QQRFLEHLV-NH2
modifications: not fully specified (residue 14)
B32: SEQ ID NO: 16 (peptide)
peptide: H[Aib]EGTFTSDVSTLKE[Aib]AAEQRFLEHLV-NH2
modifications: not fully specified (residue 14)
B33: SEQ ID NO: 151 (peptide)
peptide: H[Aib]EGTFTSDVSYLKEEA[Aib]LQRFLEELV-NH2
modifications: not fully specified (residue 14)
B34: SEQ ID NO: 158 (peptide)
peptide: H[Aib]EGTFTSDVSYL[Aib]EEA[Aib]LQRFLEKLV-NH2
modifications: not fully specified (residue 25)
B35: SEQ ID NO: 152 (peptide)
peptide: H[Aib]EGTFTSDVSYLKEEA[Aib][Aib]QRFLEHLV-NH2
modifications: not fully specified (residue 14)
B36: SEQ ID NO: 17 (peptide)
peptide: H[Aib]EGTFTSDVSRLK([AEEA-AEEA-γGlu-C20 diacid])EEAASQRFLEHLV-NH2
B37: SEQ ID NO: 166 (peptide)
peptide: HAEGTFTSDVSYLK([AEEA-AEEA-γGlu-C20 diacid])EEA[Aib]LQRFLEHLV-NH2
B38: SEQ ID NO: 146 (peptide)
peptide: H[Aib]EGTFTSDVSYLKEEA[Aib]AQRFLEHLV-NH2
modifications: not fully specified (residue 14)

How the values were obtained:
[1] = target: human secretin receptor (hSCTR) (human, UniProt P47872 23-440); assay: cell-based or functional assay
[2] = target: human GLP-1 receptor (hGLP1R) (human, UniProt P43220 24-463); assay: cell-based or functional assay

Chain of human secretin receptor (hSCTR) (P47872 23-440): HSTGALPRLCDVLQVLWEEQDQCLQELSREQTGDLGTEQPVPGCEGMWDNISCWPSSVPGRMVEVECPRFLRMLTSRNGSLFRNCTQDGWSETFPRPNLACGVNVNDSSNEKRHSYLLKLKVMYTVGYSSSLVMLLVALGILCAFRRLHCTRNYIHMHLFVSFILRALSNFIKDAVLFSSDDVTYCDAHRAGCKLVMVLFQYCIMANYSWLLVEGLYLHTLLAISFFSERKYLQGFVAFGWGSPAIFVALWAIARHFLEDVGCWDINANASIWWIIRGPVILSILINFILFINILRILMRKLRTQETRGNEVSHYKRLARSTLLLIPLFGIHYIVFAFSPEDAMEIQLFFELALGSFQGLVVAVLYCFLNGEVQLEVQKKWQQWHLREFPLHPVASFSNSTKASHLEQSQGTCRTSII

Binder	pEC50 hSCTR [1]	pEC50 hGLPR1 [2]
B1	5.5 -log M	11.3 -log M
B2	4.6 -log M	9.1 -log M
B3	8 -log M	11.2 -log M
B4	7.2 -log M	11.3 -log M
B5	5.4 -log M	10.8 -log M
B6	6.6 -log M	10.8 -log M
B7	6.5 -log M	10.7 -log M
B8	6.7 -log M	10.7 -log M
B9	4.4 -log M	10.8 -log M
B10	6.9 -log M	12.2 -log M
B11	4.6 -log M	9.1 -log M
B12	7 -log M	11.2 -log M
B13	6.1 -log M	11 -log M
B14	4.7 -log M	8.9 -log M
B15	6.9 -log M	11.2 -log M
B16	4.7 -log M	10.9 -log M
B17	4.6 -log M	10.9 -log M
B18	7.2 -log M	10.8 -log M
B19	7.2 -log M	11.1 -log M

Binder	pEC50 hSCTR [1]	pEC50 hGLPR1 [2]
B20	7.5 -log M	10.9 -log M
B21	7.9 -log M	10.9 -log M
B22	6.3 -log M	10.1 -log M
B23	6.5 -log M	10.1 -log M
B24	6.6 -log M	11.4 -log M
B25	7.1 -log M	11.1 -log M
B26	6.3 -log M	10.4 -log M
B27	6.6 -log M	10.7 -log M
B28	6.8 -log M	11.4 -log M
B29	7.5 -log M	10.9 -log M
B30	7.4 -log M	10.9 -log M
B31	6.5 -log M	11.6 -log M
B32	6.9 -log M	10.4 -log M
B33	6.9 -log M	10.6 -log M
B34	5.8 -log M	10.4 -log M
B35	5.4 -log M	10.9 -log M
B36	6.6 -log M	10.6 -log M
B37	6.5 -log M	11.1 -log M
B38	5.7 -log M	11.6 -log M
